In US20050074814A1, “Relaxin3-GPCR135 complexes and their production and use” (priority 2003, published 2005):

Columns and labels:
[1] = test system: human GPCR135; experiment: Intracellular cAMP accumulation assay in CHO-K1 cells stably expressing human GPCR135; type: cell-based; details: in the presence of GPCR135
Protocol: (§1) CHO-K1 cells stably expressing human GPCR135 were established by transfection of GPCR135 expressing plasmid into CHO-K1 (ATCC# CCL-61) cells and culturing the transfected cells under selection of G418 (400 mg/L). The receptor expressing cells were seeded in 96-well plates at a cell density of 30,000 cells/well. Twenty-four hours later, cell culture medium was replaced with DMEM-F12 plus 2 mM IBMX (sigma). A different test compound for cAMP stimulation was added to each well. The reactions were incubated at room temperature for 20 min. Twenty micro-liters of 0.5 N HCl was added to each well to stop the reaction and extract the accumulated cAMP. The cAMP concentration was measured using a cAMP ELISA kit (NEN).

[2] = test system: CHO-K1 cells; experiment: Intracellular cAMP accumulation assay in un-transfected CHO-K1 control cells; type: cell-based
Protocol: CHO-K1 cells stably expressing human GPCR135 (GPCR135) and un-transfected CHO-K1 cells (Control) were used for cAMP accumulation assays. Cells were treated with different stimulants as indicated. cAMP accumulated in the cells was extracted by HCl and the concentration of cAMP was measured by a ELISA kit (NEN) using ^125I-labeled cAMP and Flash plates.
as §1

[3] = molecular target: T1, GPCR135 (Homo sapiens, UniProt Q9NSD7); experiment: Radioligand binding assay on COS-7 cells transfected with GPCR135; parameters: primers complementary to the putative translation start and stop sites of the GPCR135 open reading frame; expressed in transfected cells; details: human GPCR135 in COS-7 cells; presence or absence of 1 μM unlabeled competitor
T1 sequence (Q9NSD7 1-469): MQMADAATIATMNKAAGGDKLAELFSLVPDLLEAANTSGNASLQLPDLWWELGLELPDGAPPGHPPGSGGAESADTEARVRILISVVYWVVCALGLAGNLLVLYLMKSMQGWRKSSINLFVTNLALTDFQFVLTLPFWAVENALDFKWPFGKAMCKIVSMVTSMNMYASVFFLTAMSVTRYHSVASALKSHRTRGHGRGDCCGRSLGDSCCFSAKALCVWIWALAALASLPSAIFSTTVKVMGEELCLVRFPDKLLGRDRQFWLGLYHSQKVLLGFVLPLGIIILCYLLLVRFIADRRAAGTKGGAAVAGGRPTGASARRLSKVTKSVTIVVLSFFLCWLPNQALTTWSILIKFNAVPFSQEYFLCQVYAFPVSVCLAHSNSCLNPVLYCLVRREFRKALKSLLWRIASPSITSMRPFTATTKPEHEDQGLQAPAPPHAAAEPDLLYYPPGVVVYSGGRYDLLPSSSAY
Protocol: (§2) COS-7 cells in 6-well tissue culture plates were transfected by GPCR135 expressing plasmid using LipofectAmine. Two days after transfection, cells were washed with binding buffer: DMEM plus 50 mM Hepes, pH 7.2 and 1% BSA. ^125I-label human relaxin3 was added to each well in 1 ml of binding buffer at presence or absence 1 μM of unlabeled relaxin as competitor. The binding assays were carried out at room temperature for one hour and the unbound ligand was washed away by ice-cold PBS. The bound 125I-relaxin3 was counted in a gamma counter.

[4] = molecular target: T2, mouse GPCR135 (Mus musculus, UniProt Q8BGE9); experiment: as above; details: mouse GPCR135 in COS-7 cells; presence or absence of 1 μM unlabeled competitor
T2 construct: Mouse GPCR135 coding region was PCR amplified from mouse genomic DNA; expressed in transfected cells; host or cells: COS-7 (transient)
T2 sequence (Q8BGE9 1-472): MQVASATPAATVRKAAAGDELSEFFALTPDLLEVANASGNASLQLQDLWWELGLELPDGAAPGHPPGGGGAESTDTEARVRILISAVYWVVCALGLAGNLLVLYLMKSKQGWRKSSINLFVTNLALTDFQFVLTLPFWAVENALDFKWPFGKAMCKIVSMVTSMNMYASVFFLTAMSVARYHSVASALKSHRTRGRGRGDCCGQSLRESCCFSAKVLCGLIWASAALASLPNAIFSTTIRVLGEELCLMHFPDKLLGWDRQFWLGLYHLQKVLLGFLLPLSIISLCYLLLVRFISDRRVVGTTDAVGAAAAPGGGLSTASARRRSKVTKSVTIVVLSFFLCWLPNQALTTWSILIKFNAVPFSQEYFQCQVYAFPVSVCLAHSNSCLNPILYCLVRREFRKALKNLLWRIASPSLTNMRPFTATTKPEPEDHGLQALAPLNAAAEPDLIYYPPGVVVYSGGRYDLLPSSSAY
Protocol: as §2

[5] = test system: rat GPCR135; experiment: as above; details: rat GPCR135 in COS-7 cells; presence or absence of 1 μM unlabeled competitor
rat GPCR135, sequence (as listed by the source): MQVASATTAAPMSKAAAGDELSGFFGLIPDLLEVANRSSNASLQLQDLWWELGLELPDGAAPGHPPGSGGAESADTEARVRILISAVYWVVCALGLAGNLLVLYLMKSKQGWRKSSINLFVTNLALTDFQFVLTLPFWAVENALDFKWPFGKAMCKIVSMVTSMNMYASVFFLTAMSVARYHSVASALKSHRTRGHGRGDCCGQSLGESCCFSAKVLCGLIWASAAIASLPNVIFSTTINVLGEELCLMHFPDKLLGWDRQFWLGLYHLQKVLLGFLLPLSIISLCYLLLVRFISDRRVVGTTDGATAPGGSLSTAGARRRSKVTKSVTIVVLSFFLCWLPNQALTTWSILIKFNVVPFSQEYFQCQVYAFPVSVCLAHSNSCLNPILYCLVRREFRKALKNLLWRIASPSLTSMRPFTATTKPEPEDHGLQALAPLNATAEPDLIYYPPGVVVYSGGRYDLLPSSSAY
Protocol: as §2

[6] = molecular target: T1, GPCR135; parameters: host or cells: Cos-1 (transient); details: transient expression of GPCR135 in Cos-1 cells; cited from earlier work
[7] = molecular target: T3, LGR7 (Homo sapiens, UniProt Q9HBX9); details: cited from earlier work
T3 sequence (Q9HBX9 1-757): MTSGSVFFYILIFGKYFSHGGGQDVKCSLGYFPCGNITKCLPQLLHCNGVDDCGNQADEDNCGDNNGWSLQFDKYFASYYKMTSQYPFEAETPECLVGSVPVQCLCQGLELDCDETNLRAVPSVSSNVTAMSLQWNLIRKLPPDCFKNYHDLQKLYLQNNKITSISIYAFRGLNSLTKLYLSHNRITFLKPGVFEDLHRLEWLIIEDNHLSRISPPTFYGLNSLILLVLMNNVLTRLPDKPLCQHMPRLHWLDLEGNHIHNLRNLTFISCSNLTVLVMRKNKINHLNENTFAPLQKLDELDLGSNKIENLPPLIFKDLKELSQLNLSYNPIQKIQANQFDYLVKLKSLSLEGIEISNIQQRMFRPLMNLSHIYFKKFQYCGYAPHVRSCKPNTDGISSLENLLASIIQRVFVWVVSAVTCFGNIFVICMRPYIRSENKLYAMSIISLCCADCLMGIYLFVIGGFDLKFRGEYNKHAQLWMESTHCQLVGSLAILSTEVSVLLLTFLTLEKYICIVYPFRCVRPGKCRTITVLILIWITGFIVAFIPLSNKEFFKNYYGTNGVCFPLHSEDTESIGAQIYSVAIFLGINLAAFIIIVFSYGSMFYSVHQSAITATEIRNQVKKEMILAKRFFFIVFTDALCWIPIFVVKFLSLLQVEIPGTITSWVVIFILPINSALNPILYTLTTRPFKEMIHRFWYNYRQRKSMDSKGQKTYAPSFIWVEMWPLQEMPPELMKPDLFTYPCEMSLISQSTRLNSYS

[8] = molecular target: T1, GPCR135; experiment: Ca2+ mobilization assay (FLIPR) in HEK293 cells co-expressing GPCR135 and Gqi5; type: cell-based; parameters: primers complementary to the putative translation start and stop sites of the GPCR135 open reading frame; expressed in transfected cells
Protocol: Using LipofectAmine, human embryonic kidney (HEK) 293 cells were co-transfected with a plasmid expressing GPCR135 receptor and a plasmid expressing Gqi5, a mutant G-protein that translates the activation of GPCR135 into an increased intracellular Ca 2+, or increased Ca^2+ mobilization (Conklin et al., 1993, Nature 363: 274-276). Two days after transfection, cells were detached with PBS plus 10 mM EDTA, pH 8.0. The detached cells were washed with DMEM-F12 medium (without phenol red, Invitrogen) and seeded in black poly-D lysine coated 96-well plates at a cell density of 50,000 cell/well. Calcium dye, Fluo-3 (AM) (TEFLABS, Austin, Tex.) was loaded into the cells and ligand stimulated calcium mobilization was monitored using FLIPR (Molecular Device).
HEK293 cells, untransfected (293 Control) or transfected by Gqi5 (293/Gqi5) alone or human GPCR135 (GPCR135) alone, or co-transfected by human GPCR135 and Gqi5 (GPCR135/Gqi5), were used for Ca^2+ mobilization assays under stimulation of relaxin3 as the ligand. Ligand-stimulated intracellular mobilization was monitored using FLIPR.

[9] = molecular target: T1, GPCR135; experiment: Intracellular cAMP accumulation assay in CHO-K1 cells stably expressing human GPCR135; type: cell-based; parameters: primers complementary to the putative translation start and stop sites of the GPCR135 open reading frame; expressed in transfected cells; host or cells: CHO-K1 (transient, pCIneo vector), membranes; details: CHO-K1 cells expressing human GPCR135
Protocol: as §1

[10] = molecular target: T1, GPCR135; experiment: GTPγS binding assay with GPCR135 expressing cell membranes; type: biochemical; parameters: primers complementary to the putative translation start and stop sites of the GPCR135 open reading frame; expressed in transfected cells; host or cells: CHO-K1 (transient, pCIneo vector), membranes; details: isolated membranes of CHO-K1 cells transfected with GPCR135; 35S-GTPγS
Protocol: Frozen rat brains (5 g) were homogenized at −30° C. in 40 ml ethanol/HCl (ethanol to 0.8M HCl ratio at 3:1). The homogenate was extracted at 4° C. for 2 hr and then centrifuged at 4° C. at 20,000 g for 30 min. The supernatant was loaded onto a 2 ml SP-Sephadex C-25 column (Amersham), washed with 1 M acetic acid and eluted with 2 M pyridine and 1 M acetic acid. The eluted fraction was loaded onto a 6 ml C-18 BondElut column, washed with 0.1% TFA and eluted with 60% acetonitrile and 0.1% TFA. The eluted peptides were lyophilized, reconstituted in water, and tested for GPCR135 ligand activity using GTPγS binding assay as described in Example 5.
GPCR135 expression vector was transfected into CHO-K1 cells using Lipofectamine (Invitrogen). Two days after transfection, the transfected cells were harvested and homogenized in GTPγS binding buffer: 50 mM Tris-HCl, pH 7.4, 10 mM MgCl2, 1 mM EDTA pH 8.0, and 100 mM NaCl. Protease inhibitors were added to the buffer at concentrations of 1 mM PMSF, 10 μg/ml of pepstain A, 10 μg/ml of leupeptin. Cell membranes were isolated by centrifugation at 20,000 g for 30 min. […] Microscint-40 (Packard) was added to each well and the plate was counted on a top counter (TopCount NTX, Packard).

C=C[C@@]1(C)CC(=O)[C@]2(O)[C@@]3(C)[C@@H](O)CCC(C)(C)[C@@H]3[C@H](O)[C@H](OC(C)=O)[C@@]2(C)O1 [forskalin]
intracellular concentration of cAMP [1]: increases the intracellular concentration of cAMP
intracellular concentration of cAMP ([2]; in the absence of GPCR135): increases the intracellular concentration of cAMP

^125I-relaxin 3: 125I-labeled human relaxin3 used as radioligand
specific binding to GPCR135 [3]: specifically binds
specific binding to GPCR135 [4]: specifically binds
specific binding to GPCR135 [5]: specifically binds

angiotensin II (DRVYIHPF; Angiotensin-2; UniProt P01019 25-32, looked up)
binding sites on GPCR135 expressing cells [6]: did not produce any binding sites

relaxin3: recombinant human relaxin3, mature two-chain (A and B) peptide linked by disulfide bridges, purified from transfected COS-7 medium
activation of LGR7 [7]: activates LGR7
ligand-stimulated intracellular Ca2+ mobilization [8]: stimulated Ca^2+ mobilization
forskalin-stimulated cAMP accumulation [9]: inhibits forskalin-stimulated cAMP accumulation
forskalin-stimulated cAMP accumulation ([2]; control cells where GPCR135 is absent): not in control cells
stimulation of GTPγS binding in GPCR135 expressing cell membrane [10]: potently stimulated GTPγS binding
